# According to IntAct's records for PubMed 16830178:
# B1: ADP-ribosylation factor 3 (Arabidopsis thaliana (Mouse-ear cress)), P40940 (parent)
# chain: MGILFTRMFSSVFGNKEARILVLGLDNAGKTTILYRLQMGEVVSTIPTIGFNVETVQYNNIKFQVWDLGGQTSIRPYWRCYFPNTQAVIYVVDSSDTDRIGVAKEEFHAILEEDELKGAVVLIFANKQDLPGALDDAAVTEALELHKIKSRQWAIFKTCAVKGEGLFEGLDWLSNTLKSGSG
# partner: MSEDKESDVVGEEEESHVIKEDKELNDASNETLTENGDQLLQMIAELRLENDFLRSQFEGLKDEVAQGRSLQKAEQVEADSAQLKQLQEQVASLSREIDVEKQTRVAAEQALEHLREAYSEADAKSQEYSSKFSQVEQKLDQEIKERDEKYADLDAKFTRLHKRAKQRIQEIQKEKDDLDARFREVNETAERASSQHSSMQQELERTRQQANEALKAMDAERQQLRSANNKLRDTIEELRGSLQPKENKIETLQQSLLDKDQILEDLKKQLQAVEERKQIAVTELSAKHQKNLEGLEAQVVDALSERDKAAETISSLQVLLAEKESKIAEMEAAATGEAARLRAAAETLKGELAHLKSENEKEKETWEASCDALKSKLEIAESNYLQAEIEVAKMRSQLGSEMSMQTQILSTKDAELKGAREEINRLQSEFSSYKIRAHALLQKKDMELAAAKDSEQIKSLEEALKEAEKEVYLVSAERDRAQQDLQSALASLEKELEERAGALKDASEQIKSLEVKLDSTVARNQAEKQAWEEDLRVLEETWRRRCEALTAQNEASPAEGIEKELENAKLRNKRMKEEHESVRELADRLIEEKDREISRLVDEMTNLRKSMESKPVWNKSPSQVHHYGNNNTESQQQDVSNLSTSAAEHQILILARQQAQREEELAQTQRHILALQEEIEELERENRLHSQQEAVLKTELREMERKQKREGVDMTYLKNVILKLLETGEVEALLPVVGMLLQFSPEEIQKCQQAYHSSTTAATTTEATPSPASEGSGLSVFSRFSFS
# B2: Protein GRIP (Arabidopsis thaliana (Mouse-ear cress)), Q8S2T0 (parent)
# chain: B1 partner
# partner: B1 chain
# Variants of: B1
# Details: with grip_arath GRIP, Q8S2T0
row,Variant,effect of a mutation on the interaction
1,MGILFTRMFSSVFGNKEARILVLGLDNAGKTTILYRLQMGEVVSTIPTIGFNVETVQYNNIKFQVWDLGGQTSIRPYWRCGFPNTQAVIYVVDSSDTDRIGVAKEEFHAILEEDELKGAVVLIFANKQDLPGALDDAAVTEALELHKIKSRQWAIFKTCAVKGEGLFEGLDWLSNTLKSGSG [Y81G],decreasing interaction
2,MGILFTRMFSSVFGNKEARILVLGLDNAGKTTILYRLQMGEVVSTIPTIGGNVETVQYNNIKFQVWDLGGQTSIRPYWRCYFPNTQAVIYVVDSSDTDRIGVAKEEFHAILEEDELKGAVVLIFANKQDLPGALDDAAVTEALELHKIKSRQWAIFKTCAVKGEGLFEGLDWLSNTLKSGSG [F51G],decreasing interaction

# Variants of: B1
# Details: with grip_arath GRIP
row,Variant,effect of a mutation on the interaction
1,MGILFTRMFSSVFGNKEARILVLGLDNAGKTTILYRLQMGEVVSTIPTIGFNVETVQYNNIKFQVWDLGGQTSIRPYWRCGFPNTQAVIYVVDSSDTDRIGVAKEEFHAILEEDELKGAVVLIFANKQDLPGALDDAAVTEALELHKIKSRQWAIFKTCAVKGEGLFEGLDWLSNTLKSGSG [Y81G],disrupting interaction
2,MGILFTRMFSSVFGNKEARILVLGLDNAGKTTILYRLQMGEVVSTIPTIGGNVETVQYNNIKFQVWDLGGQTSIRPYWRCYFPNTQAVIYVVDSSDTDRIGVAKEEFHAILEEDELKGAVVLIFANKQDLPGALDDAAVTEALELHKIKSRQWAIFKTCAVKGEGLFEGLDWLSNTLKSGSG [F51G],disrupting interaction

# Variants of: B2
# Details: with arf3_arath ARF3, P40940
row,Variant,effect of a mutation on the interaction
1,K719A,decreasing interaction
2,Y717A,decreasing interaction
